Test [1] addresses T1, IL-2 labelled with 125I (human, UniProt P60568, 125I label by the chloramine-T method). Put plainly: 125I-IL-2 binding to Lβγ-9 cells at 4° C., Scatchard plot. Here is the method:
(§1) The radioactivity of ^125I-IL-2 bound or not bound to the cells was determined. The value for the background or the binding radioactivity in the case of addition of unlabelled IL-2 was subtracted from each of the measurements to calculate the binding amounts, the binding ability and the binding affinity of IL-2 to the receptor as determined by a Scatchard plot.

Test [2] deals with T1, IL-2 labelled with 125I. Put plainly: 125I-IL-2 binding to Lαβγ-4 cells at 4° C., Scatchard plot, biphasic, low affinity component. On the procedure: as §1
For test [3], the target named is T1, IL-2 labelled with 125I. Put plainly: 125I-IL-2 binding to Lαβγ-4 cells at 4° C., Scatchard plot, biphasic, high affinity component. On the procedure:
as §1

B1: IL-2 receptor β and γ chains on Lβγ-9 cells (L929 cells with IL-2 receptor β and γ chain expression) (receptor)
chain 1: AVNGTSQFTCFYNSRANISCVWSQDGALQDTSCQVHAWPDRRRWNQTCELLPVSQASWACNLILGAPDSQKLTTVDIVTLRVLCREGVRWRVMAIQDFKPFENLRLMAPISLQVVHVETHRCNISWEISQASHYFERHLEFEARTLSPGHTWEEAPLLTLKQKQEWICLETLTPDTQYEFQVRVKPLQGEFTTWSPWSQPLAFRTKPAALGKDTIPWLGHLLVGLSGAFGFIILVYLLINCRNTGPWLKKVLKCNTPDPSKFFSQLSSEHGGDVQKWLSSPFPSSSFSPGGLAPEISPLEVLERDKVTQLLLQQDKVPEPASLSSNHSLTSCFTNQGYFFFHLPDALEIEACQVYFTYDPYSEEDPDEGVAGAPTGSSPQPLQPLSGEDDAYCTFPSRDDLLLFSPSLLGGPSPPSTAPGGSGAGEERMPPSLQERVPRDWDPQPLGPPTPGVPDLVDFQPPPELVLREAGEEVPDAGPREGVSFPWSRPPGQGEFRALNARLPLNTDAYLSLQELQGQDPTHLV
chain 2: LNTTILTPNGNEDTTADFFLTTMPTDSLSVSTLPLPEVQCFVFNVEYMNCTWNSSSEPQPTNLTLHYWYKNSDNDKVQKCSHYLFSEEITSGCQLQKKEIHLYQTFVVQLQDPREPRRQATQMLKLQNLVIPWAPENLTLHKLSESQLELNWNNRFLNHCLEHLVQYRTDWDHSWTEQSVDYRHKFSLPSVDGQKRYTFRVRSRFNPLCGSAQHWSEWSHPIHWGSNTSKENPFLFALEAVVISVGSMGLIISLLCVYFWLERTMPRIPTLKNLEDLVTEYHGNFSAWSGVSKGLAESLQPDYSERLCLVSEIPPKGGALGEGPGASPCNQHSPYWAPPCYTLKPET
The molecule B1 came in with a Kd in test [1] of 4.6 nM.

B2: IL-2 receptor α, β and γ chains on Lαβγ-4 cells (L929 with IL-2 receptor α, β and γ chain expression) (receptor)
chain 1: ELCDDDPPEIPHATFKAMAYKEGTMLNCECKRGFRRIKSGSLYMLCTGNSSHSSWDNQCQCTSSATRNTTKQVTPQPEEQKERKTTEMQSPMQPVDQASLPGHCREPPPWENEATERIYHFVVGQMVYYQCVQGYRALHRGPAESVCKMTHGKTRWTQPQLICTGEMETSQFPGEEKPQASPEGRPESETSCLVTTTDFQIQTEMAATMETSIFTTEYQVAVAGCVFLLISVLLLSGLTWQRRQRKSRRTI
chain 2: B1 chain 1
chain 3: B1 chain 2
In the case of B2, the Kd in test [2] is 2.4 nM; in test [3], 0.077 nM.

Usually Kd stands for the constant that tells how readily two partners part at equilibrium. Read a high Kd as lower affinity.
